Here are results for one substance from article PMC3605701.

What all share (experiment): SEC
The target of test [1] is endogenous Xenopus Cdt1/RLF-B (Xenopus (endogenous in egg extract)) (UniProt Q9I9A7).
The target is the same in test [2]. The source holds these as a separate data set.
Test [3] has the same target. The source holds these as a separate data set.

Like-named read-outs stand apart in the source and are kept apart here.

UniProt Q9I9A7, sequence (Q9I9A7 whole entry): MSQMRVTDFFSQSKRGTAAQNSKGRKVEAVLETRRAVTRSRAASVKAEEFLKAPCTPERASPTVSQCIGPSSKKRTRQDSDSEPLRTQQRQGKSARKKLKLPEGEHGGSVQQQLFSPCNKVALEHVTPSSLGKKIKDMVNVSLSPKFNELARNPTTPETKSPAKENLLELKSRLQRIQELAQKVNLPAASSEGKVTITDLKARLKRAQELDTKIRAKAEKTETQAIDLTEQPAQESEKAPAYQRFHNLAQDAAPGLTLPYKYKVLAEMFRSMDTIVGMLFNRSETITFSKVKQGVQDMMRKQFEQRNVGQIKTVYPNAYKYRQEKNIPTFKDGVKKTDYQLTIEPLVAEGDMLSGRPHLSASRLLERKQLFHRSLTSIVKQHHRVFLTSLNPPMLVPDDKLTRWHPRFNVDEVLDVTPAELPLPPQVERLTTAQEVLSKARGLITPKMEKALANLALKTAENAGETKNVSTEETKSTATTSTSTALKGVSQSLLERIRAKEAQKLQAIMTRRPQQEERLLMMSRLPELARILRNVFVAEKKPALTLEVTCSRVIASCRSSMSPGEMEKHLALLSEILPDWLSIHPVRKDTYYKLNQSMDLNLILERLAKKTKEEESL

Consider “endogenous Xenopus geminin (from UniProt O93352 1-219) (natural protein)”, for which the results for the percent of geminin co-fractionating with Cdt1/RLF-B in test [1], in test [2] and in test [3] were 61%, 24% and 45%, respectively. Further, the percent of geminin in the smaller complex without Cdt1/RLF-B in test [1] was more than 95%.
